Assay results reported in doi:10.1101/2022.08.26.505453.
Where “and” joins values, the source holds several entries; their conditions need not be identical. Identical values can stand only once.

Legend:
[1] = molecular target: MBP-Vpu fusion protein (His8 tag, maltose binding protein, 11-residue linker, full-length HIV-1 Vpu with Q36C) (HIV-1); experiment: SEC
[2] = molecular target: MBP-Vpu fusion protein (His8 tag, maltose binding protein, 11-residue linker, full-length HIV-1 Vpu with Q36C) (HIV-1); experiment: SDS-PAGE and western blot
[3] = molecular target: MBP-Vpu fusion protein (His8 tag, maltose binding protein, 11-residue linker, full-length HIV-1 Vpu with Q36C) (HIV-1); experiment: SEC; remark: listed apart in the source
[4] = molecular target: MBP-Vpu fusion protein (His8 tag, maltose binding protein, 11-residue linker, full-length HIV-1 Vpu with Q36C) (HIV-1); experiment: negative staining electron microscopy
[5] = molecular target: MBP-Vpu fusion protein (His8 tag, maltose binding protein, 11-residue linker, full-length HIV-1 Vpu with Q36C) (HIV-1); experiment: SEC; remark: listed apart in the source

## MBP-Vpu fusion protein (His8 tag, maltose binding protein, 11-residue linker, full-length HIV-1 Vpu with Q36C)
[1]
  stoichiometry N: 5 and 4
[2]
  stoichiometry N: 2 and 5
[3]
  stoichiometry N: 5 and 4
[4]
  stoichiometry N: 5
[5]
  stoichiometry N: 5
